Consider 2 molecules from patent publication US20210355178A1 (UNIVERSIT T ULM, published 2021).

Test [1] addresses T1, complement factor C3b (UniProt P01024 23-667; P01024 749-1663). As to the kind of experiment: SPR, C3b amine-coupled (4030 RU), 1:1 steady-state affinity fit. From the text:
FIG. 3: C3b binding activity of miniFH and Fc-fusion variants of miniFH. Surface plasmon resonance (SPR) sensorgrams for C3b binding of miniFH (A), miniFH-Fc (C), Fc-miniFH (E) and Fc-miniFH-short (G) (assayed at a concentration range as specified; 4030 RU of C3b were deposited by amine). (B) Respective concentration response plots with fitted affinity (1:1 steady-state affinity fit) for C3b binding of miniFH (B), miniFH-Fc (D), Fc-miniFH (F) and Fc-miniFH-short (H) are shown. The affinity equilibrium constant is stated in the panes.
Surface plasmon resonance experiments were performed at 25° C. on a Reichert SR7500DC SPR instrument in PBS containing 0.005% Tween20 at a flow of 25 μl/min. 4030 response units (RU) of C3b were immobilized onto a carboxymethyldextran (CMD) 500 sensor chip (Xantec) and binding to amine coupled C3b was assayed. The analytes were injected at the indicated concentrations. To probe binding, a concentration series of miniFH or Fc fusions of miniFH were injected (at 25 μl/min for 2.5 min) followed by buffer flow for 300 s and a regeneration step consisting of an injection of 1 M NaCl for 30 s. The highest concentration of each series was injected twice to assess reproducibility. […]
Background: Surface plasmon resonance follows binding to a sensor surface in real time, without labels.

For test [2], the target named is T1, complement factor C3b. As to the kind of experiment: SPR, C3b amine-coupled (5610 RU), DAF-Fc as analyte. As to the method: 2600 RU of Bb were deposited by standard amine coupling onto a carboxymethyldextran sensorchip. Running buffer was PBS supplemented with 1 mM MgCl2 and 0.005% Tween 20. […] 5610 RU of C3b were deposited by standard amine coupling onto a carboxymethyldextran sensorchip. Running buffer was PBS supplemented with 1 mM MgCl2 and 0.005% Tween 20.

T1 sequence (P01024 23-667 limits assumed, chain 1 of 2): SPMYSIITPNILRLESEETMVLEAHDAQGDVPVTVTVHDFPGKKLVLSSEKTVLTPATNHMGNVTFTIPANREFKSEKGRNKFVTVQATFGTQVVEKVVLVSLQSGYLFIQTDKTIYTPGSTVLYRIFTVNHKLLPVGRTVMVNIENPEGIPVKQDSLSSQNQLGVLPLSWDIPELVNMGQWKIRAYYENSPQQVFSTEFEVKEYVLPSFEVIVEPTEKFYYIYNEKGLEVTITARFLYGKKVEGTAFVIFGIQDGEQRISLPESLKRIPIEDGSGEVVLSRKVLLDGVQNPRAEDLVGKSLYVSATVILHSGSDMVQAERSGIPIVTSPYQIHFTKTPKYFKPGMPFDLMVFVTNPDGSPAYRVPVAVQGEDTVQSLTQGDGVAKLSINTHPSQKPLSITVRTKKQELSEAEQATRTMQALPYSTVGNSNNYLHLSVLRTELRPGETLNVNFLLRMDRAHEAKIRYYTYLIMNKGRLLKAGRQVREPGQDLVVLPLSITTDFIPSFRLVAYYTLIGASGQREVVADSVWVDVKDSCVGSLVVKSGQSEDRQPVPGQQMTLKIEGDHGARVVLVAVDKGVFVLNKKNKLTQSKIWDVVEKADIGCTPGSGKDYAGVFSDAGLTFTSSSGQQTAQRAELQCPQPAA
T1 sequence (P01024 749-1663 limits assumed, chain 2 of 2): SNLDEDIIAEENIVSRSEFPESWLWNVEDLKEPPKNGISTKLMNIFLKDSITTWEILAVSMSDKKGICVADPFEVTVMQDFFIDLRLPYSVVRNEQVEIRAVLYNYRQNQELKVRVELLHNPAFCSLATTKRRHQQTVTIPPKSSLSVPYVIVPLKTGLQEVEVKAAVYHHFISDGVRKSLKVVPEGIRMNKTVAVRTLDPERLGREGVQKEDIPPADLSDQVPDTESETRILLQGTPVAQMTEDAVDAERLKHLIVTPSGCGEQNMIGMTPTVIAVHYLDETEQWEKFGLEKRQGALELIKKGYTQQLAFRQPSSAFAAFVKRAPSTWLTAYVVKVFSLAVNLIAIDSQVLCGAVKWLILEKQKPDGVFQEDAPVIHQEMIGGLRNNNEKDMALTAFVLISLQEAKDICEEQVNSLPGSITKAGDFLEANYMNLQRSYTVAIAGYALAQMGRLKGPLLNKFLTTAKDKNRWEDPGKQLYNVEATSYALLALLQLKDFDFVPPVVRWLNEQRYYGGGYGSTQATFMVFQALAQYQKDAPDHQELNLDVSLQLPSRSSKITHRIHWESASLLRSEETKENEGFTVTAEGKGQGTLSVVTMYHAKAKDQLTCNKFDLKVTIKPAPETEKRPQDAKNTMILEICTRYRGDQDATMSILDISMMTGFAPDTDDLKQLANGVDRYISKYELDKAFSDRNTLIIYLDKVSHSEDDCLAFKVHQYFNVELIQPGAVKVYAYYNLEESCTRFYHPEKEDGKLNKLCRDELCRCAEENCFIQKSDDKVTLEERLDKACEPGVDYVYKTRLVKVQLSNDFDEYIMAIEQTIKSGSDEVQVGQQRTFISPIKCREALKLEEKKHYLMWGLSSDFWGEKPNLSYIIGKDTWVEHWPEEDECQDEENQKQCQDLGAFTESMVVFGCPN

B1: miniFH-Fc (Fc fusion)
chain: EDCNELPPRRNTEILTGSWSDQTYPEGTQAIYKCRPGYRSLGNIIMVCRKGEWVALNPLRKCQKRPCGHPGDTPFGTFTLTGGNVFEYGVKAVYTCNEGYQLLGEINYRECDTDGWTNDIPICEVVKCLPVTAPENGKIVSSAMEPDREYHFGQAVRFVCNSGYKIEGDEEMHCSDDGFWSKEKPKCVEISCKSPDVINGSPISQKIIYKENERFQYKCNMGYEYSERGDAVCTESGWRPLPSCEEAGGGGGGGGGGGGGKCGPPPPIDNGDITSFPLSVYAPASSVEYQCQNLYQLEGNKRITCRNGQWSEPPKCLHPCVISREIMENYNIALRWTAKQKLYSRTGESVEFVCKRGYRLSSRSHTLRTTCWDGKLEYPTCAGPGGGGGPGCPAPELLGGPSVFLFPPKPKDTLMISRTPEVTCVVVDVSHEDPEVKFNWYVDGVEVHNAKTKPREEQYQSTYRVVSVLTVLHQDWLNGKEYKCKVSNKALPAPIEKTISKAKGQPREPQVYTLPPSREEMTKNQVSLTCLVKGFYPSDIAVEWESNGQPENNYKTTPPVLDSDGSFFLYSKLTVDKSRWQQGNVFSCSVMHEALHNHYTQKSLSLSPGGGGGGG
notes: Produced in Pichia pastoris
Regarding B1, in the test with complement factor C3b [1], the “fold increased affinity over miniFH” value is ~2 fold.

B2: DAF-Fc (Fc fusion)
chain: DCGLPPDVPNAQPALEGRTSFPEDTVITYKCEESFVKIPGEKDSVICLKGSQWSDIEEFCNRSCEVPTRLNSASLKQPYITQNYFPVGTVVEYECRPGYRREPSLSPKLTCLQNLKWSTAVEFCKKKSCPNPGEIRNGQIDVPGGILFGATISFSCNTGYKLFGSTSSFCLISGSSVQWSDPLPECREIYCPAPPQIDNGIIQGERDHYGYRQSVTYACNKGFTMIGEHSIYCTVNNDEGEWSGPPPECRGGGGGGPGCPAPELLGGPSVFLFPPKPKDTLMISRTPEVTCVVVDVSHEDPEVKFNWYVDGVEVHNAKTKPREEQYQSTYRVVSVLTVLHQDWLNGKEYKCKVSNKALPAPIEKTISKAKGQPREPQVYTLPPSREEMTKNQVSLTCLVKGFYPSDIAVEWESNGQPENNYKTTPPVLDSDGSFFLYSKLTVDKSRWQQGNVFSCSVMHEALHNHYTQKSLSLSPGGGGGGG
notes: not shown: Fc module at the C-terminus
Take B2: the binding result with complement factor C3b [2] is recorded as “no binding”.
